Assays:
cyno FOLR1 on CHO cells = biological target: T1, cyno FOLR1 on CHO cells (cyno (Cynomolgus macaque), UniProt A0A2K5U044 25-234); assay: flow cytometry, CHO cells stably expressing cyno FOLR1
T1 construct: whole, on cells; also called cyFOLR1

[1] = biological target: T2, human Folate Receptor Alpha (FOLR1) on cells (human, UniProt P15328 25-234); assay: flow cytometry, CHO cells stably expressing human FOLR1
T2 construct: whole, on cells; Endogenous on IGROV-1, OVCAR-3, SKOV-3, HT-29 cells; transfected on CHO cells; the cell is named under assay; also called FRα; FRa
T2 sequence (P15328 25-234): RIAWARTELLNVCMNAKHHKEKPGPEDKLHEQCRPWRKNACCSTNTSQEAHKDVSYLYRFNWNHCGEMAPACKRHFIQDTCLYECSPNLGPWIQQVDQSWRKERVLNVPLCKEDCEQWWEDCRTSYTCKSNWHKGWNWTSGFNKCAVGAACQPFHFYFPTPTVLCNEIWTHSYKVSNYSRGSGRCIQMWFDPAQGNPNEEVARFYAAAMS

T1 sequence (A0A2K5U044 entry or part of it): as the sequence (P15328 25-234) above, with I2T, W4R, R37K, A146P, H171Y counted along it

Binder	fold over background MFI (cyno FOLR1 on CHO cells) [fold over background]	fold over background MFI [1] [fold over background]
anti-FOLR1 heavy chain antibody (HCAb, UniAb) clone ID 358393 (antibody, V domains shown, Heavy chain-only antibody (no light chain), F14 family) VH: EVQLVESGGGLVQPGGSLRLSCAASGFTFSSYSMNWARQAPGKGLEWVSYISSSSSSIYYADSVKGRFTISRDNAKNSLYLQMNSLRAEDTAVYYCARDVTSGIAAAGSAFNIRGQGTLVTVSS	1.2	402
anti-FOLR1 heavy chain antibody (HCAb, UniAb) clone ID 358418 (antibody, V domains shown, Heavy chain-only antibody (no light chain), F14 family) VH: EVQLVESGGGLVQPGGSLRLSCAASGFTFSSYSMNWVRQAPGKGLEWVSSISSGSSYIYYADSVKGRFTISRDNAKNSLYLQMNSLRAEDTALYYCARDVTSGIAAAGSAFNIRGQGTLVTVSS	2080	1500
anti-FOLR1 heavy chain antibody (HCAb, UniAb) clone ID 358452 (antibody, V domains shown, Heavy chain-only antibody (no light chain), F14 family) VH: EVQLVESGGGLVQPGGSLRLSCAASGFTFSSYSMNWVRQAPGKGLEWVASISSGSSDIYYADSVKGRFTISRDNAKNSLYLQMNSLRAEDTAVYYCARDVTSGIAAAGSAFNIRGQGTLVTVSS	1.7	1840
anti-FOLR1 heavy chain antibody (HCAb, UniAb) clone ID 358416 (antibody, V domains shown, Heavy chain-only antibody (no light chain), F14 family) VH: EVQLVESGGGLVKPGGSLRLSCAASGFTFSSYTMNWVRQAPGKGLEWVSSISSGSSYIYYADSVKGRFTISRDNAKNSLYLQMNSLRAEDTAVYYCARDVTSGIAAAGSAFNIRGQGTLVTVSS	1820	1870
anti-FOLR1 heavy chain antibody (HCAb, UniAb) clone ID 358456 (antibody, V domains shown, Heavy chain-only antibody (no light chain), F14 family) VH: EVQLVESGGGLVKPGGSLRLSCAASGFIFSSYSMNWVRQAPGKGLEWVSSISSGSSYIYYADSVKGRFTISRDNAKNSLYLQMNSLRAEDTAVYFCARDVTSGIAAAGSAFNIRGQGTLVTVSS	2090	1870
anti-FOLR1 heavy chain antibody (HCAb, UniAb) clone ID 358396 (antibody, V domains shown, Heavy chain-only antibody (no light chain), F14 family) VH: EVQLVESGGGLVKPGGSLRLSCAASGFTFSSYSMNWVRQAPGKGLEWVSSISSSSSYIYYADSVKGRFTISRDNAKNSLYLQMNSLRAEDTAVYFCARDVTSGIAAAGSAFNIRGQGTLVTVSS	360	1730
anti-FOLR1 heavy chain antibody (HCAb, UniAb) clone ID 358441 (antibody, V domains shown, Heavy chain-only antibody (no light chain), F14 family) VH: EVQLVESGGGLVQPGGSLRLSCAASGFSFSSYSMNWVRQAPGKGLEWVSSISSGSSYIYYADSVKGRFTISRDNAKNSLYLQMNSLRGEDTAVYYCARDVTSGIAAAGSAFNIRGQGTLVTVSS	2300	1900
anti-FOLR1 heavy chain antibody (HCAb, UniAb) clone ID 358446 (antibody, V domains shown, Heavy chain-only antibody (no light chain), F14 family) VH: EVQLVESGGGLVKPGGSLRLSCAASGFIFSSYSMNWVRQAPGKGLEWVSSISSGSSYIYYADSVKGRFTISRDDAKNSLYLQMNSLRAEDTAVYFCARDVTSGIAAAGSAFNIRGQGTLVTVSS	1.5	1270
anti-FOLR1 heavy chain antibody (HCAb, UniAb) clone ID 358399 (antibody, V domains shown, Heavy chain-only antibody (no light chain), F14 family) VH: EVQLVESGGGLVKPGGSLRLSCVASGFTFSSYSMNWVRQAPGKGLEWVSSISSSSSYIYYADSVKGRFTISRDNAKNSLYLQMNSLRAEDTAVYYCARDVTSGIAAAGSAFNIRGQGTLVTVSS	330	2010
anti-FOLR1 heavy chain antibody (HCAb, UniAb) clone ID 358397 (antibody, V domains shown, Heavy chain-only antibody (no light chain), F14 family) VH: EVQLVESGGGLVKPRGSLRLSCEASGFTFSSYSMNWVRQAPGKGLEWVSSISSGSSYIYYADSVKGRFTISRDNAKNSLYLQMNSLRAEDTAVYYCARDVTSGIAAAGSAFNIRGQGTLVTVSS	331	277
anti-FOLR1 heavy chain antibody (HCAb, UniAb) clone ID 358442 (antibody, V domains shown, Heavy chain-only antibody (no light chain), F14 family) VH: EVQLVESGGGLVKPGGSLRLSCAASGFTFSSYSMNWVRQAPGKGLEWVSYISSSSSYIYYADSVKGRFTISRDNAKNSLYLQMNSLRAEDTAVYYCARDVTSGIAAAGSAFNIRGQGTLVTVSS	1.2	1600
anti-FOLR1 heavy chain antibody (HCAb, UniAb) clone ID 358413 (antibody, V domains shown, Heavy chain-only antibody (no light chain), F14 family) VH: EVQLVESGGGLVQPGGSLRLSCAASGFSFSSYSMNWVRQAPGKGLEWVSSISSSSSYIYYADSVKGRFTISRDNSKNTLYLQMNSLRAEDTAVYYCARDVTSGIAAAGSAFNIRGQGTLVTVSS	497	1810
anti-FOLR1 heavy chain antibody (HCAb, UniAb) clone ID 358420 (antibody, V domains shown, Heavy chain-only antibody (no light chain), F14 family) VH: EVQLVESGGGLVKPGGSLRLSCAASGFTFSSYSMNWVRQAPGKGLEWVSSISSGSSYIYYADSVKGRFTISRDNANNSLYLQMNSLRAEDTAVYFCARDVTSGIAAAGSAFNIRGQGTLVTVSS	2260	1760
anti-FOLR1 heavy chain antibody (HCAb, UniAb) clone ID 358466 (antibody, V domains shown, Heavy chain-only antibody (no light chain), F14 family) VH: EVQLVESGGGLIQPGGSLRLSCAASGFTFSSYSMNWVRQAPGKGLEWVSSISSGSSYIYYADSVKGRFTISRDNAKNSLYLQMNSLRAEDTAVYYCARDVTSGIAAAGSAFNIRGQGTLVTVSS	2090	1600
anti-FOLR1 heavy chain antibody (HCAb, UniAb) clone ID 358462 (antibody, V domains shown, Heavy chain-only antibody (no light chain), F14 family) VH: EVQLVESGGGLVQPGGSLRLSCAASGFTFSSYSMNWVRQAPGKGLEWVSSISSGSSYIYYADSVKGRFTISRDNAKNSLYLQMNSLRAEDTAVYYCARDVTSGIAAAGSAFNIRGQGTLVTVSS	2580	2150
anti-FOLR1 heavy chain antibody (HCAb, UniAb) clone ID 358480 (antibody, V domains shown, Heavy chain-only antibody (no light chain), F14 family) VH: EVQLVESGGGLVKPGGSLRLSCAASGFTFSSYSMNWVRQAPGKGLEWVSSISSGSTYIYYADSVKGRFTISRDNAKNSLYLQMNSLRAEDTAVYYCARDVTSGIAAAGSAFNIRGQGTLVTVSS	1200	2140
anti-FOLR1 heavy chain antibody (HCAb, UniAb) clone ID 358478 (antibody, V domains shown, Heavy chain-only antibody (no light chain), F14 family) VH: EVQLVESGGGLIQPGGSLRLSCAASGFIFSSYSMNWVRQAPGKGLEWVSYISSSSSYIYYADSVKGRFTISRDNAKNSLYLQMNSLRAEDTAVYYCARDVTSGIAAAGSAFNIRGQGTLVTVSS	1.1	427
anti-FOLR1 heavy chain antibody (HCAb, UniAb) clone ID 358468 (antibody, V domains shown, Heavy chain-only antibody (no light chain), F14 family) VH: EVQLVESGGGLVKPGGSLRLSCAASGFTFSSYSMNWVRQAPGKGLEWVSSISSSSSYIYYADSVKGRFTISRDNAKNSLYLQMNSLRAEDTAVYYCARDVTSGIAAAGSAFNIRGQGTLVTVSS	314	1670
anti-FOLR1 heavy chain antibody (HCAb, UniAb) clone ID 358464 (antibody, V domains shown, Heavy chain-only antibody (no light chain), F14 family) VH: EVQLVESGGGLVQPGGSLRLSCAASGFTFSSYSMNWVRQAPGKGLEWVSYISSSSSTIYYADSVKGRFTISRDNAKNSLYLQMNSLRAEDTAVYYCARDVTSGIAAAGSAFNIRGQGTLVTVSS	6.4	2100
anti-FOLR1 heavy chain antibody (HCAb, UniAb) clone ID 358590 (antibody, V domains shown, Heavy chain-only antibody (no light chain), F18 family) VH: EVQLVESGGGLVQPGGSLRLSCAASGFTFSSYSMNWVRQAPGKGLEWVSYISSSSDTIEYADSVKGRFTISRDNAKNSLYLQMNSLRDEDTAVYYCASVGLDFDYRGQGTLVTVSS	21.8	1570

Source: patent US20240002498A1 (TENEOBIO, published 2024)
